Test results from patent US20250051473A1 (IGM BIOSCIENCES, published 2025).

Columns and labels:
[1] = molecular target: T1, recombinant cynomolgus monkey CD38 extracellular domain protein (ACROBiosystems) (cynomolgus monkey, UniProt Q5VAN0 44-301); experiment: ELISA, plate coated with recombinant cynomolgus CD38 extracellular domain, HRP anti-human kappa detection, chemiluminescence (RLU)
T1 construct: Bought extracellular domain protein; also called cyno CD38; recombinant cyno CD38
Experimental: (§1) Plates were then washed five times with 0.05% phosphate buffered saline (PBS)-polysorbate sold under the trademark TWEEN® (PBS-TWEEN®) and blocked with 2% bovine serum albumin (BSA)-PBS. After blocking, 100 μL of serial dilutions of chimeric CD38×CD3 IgM antibodies, standards, and controls were added to each well of the plates and incubated at room temperature for 2 hours. […] PRISM® using a 4-parameter logistic model.

[2] = molecular target: cell surface human CD38 on NCI-H929 myeloma cells (human, UniProt P28907 1-300); experiment: flow cytometry on NCI-H929 cells, AF488 anti-human kappa secondary antibody, median FL-1
Experimental: In addition, binding to cell surface human CD38 was assessed using the myeloma cell line, NCI-H929 (H929), and flow cytometry analysis. In brief, H929 cells were stained with serial dilutions of chimeric CD38×CD3 IgM antibodies for 30 minutes at 4° C. […] Cells were then washed twice, resuspended in fluorescence-activated cell sorting (FACS) stain buffer, and measured using flow cytometry.

[3] = molecular target: T2, recombinant human CD38 extracellular domain protein (ACROBiosystems, Cat #CD8-H5224) (human, UniProt P28907 43-300); experiment: ELISA, plate coated with recombinant human CD38 extracellular domain, HRP anti-human kappa detection, chemiluminescence (RLU)
T2 construct: Bought protein; also called recombinant human CD38 protein
Experimental: as §1

[4] = molecular target: T2, recombinant human CD38 extracellular …; experiment: BLI (Octet 384), IgG on anti-human IgG Fc biosensors, soluble human CD38 as analyte, 1:1 global fit
Experimental: Samples and buffer were applied in 384-well plates. After an initial baseline calibration for 60 seconds, sensors were loaded with 20 nM of IgG antibodies. The biosensors were dipped into buffer to reach a baseline value and incubated for 600 seconds with 2-fold serial diluted human CD38 protein starting at 100 nM for association, followed by 900 seconds in buffer for dissociation.

[5] = molecular target: T1, recombinant cynomolgus monkey CD38 …; experiment: ELISA screen of hybridoma supernatants on recombinant CD38
[6] = molecular target: T2, recombinant human CD38 extracellular …; experiment: as above

Row | Binder | Kd [4] [nM] | koff [4] [s⁻¹] | kon [4] [M⁻¹ s⁻¹] | binding result [5] | binding result [6] | other results
1 | IgM E-1 (bispecific antibody, Constant regions not specified; also called chimeric CD38 × CD3 IgM antibody of Clone E) VH: QVQLQQSGAELVRPGTSVKMSCKAAGYTFTNHWIEWVKQRPGHGLEWIGDIFPGGGYTDYNEKFKGKATLTADTSSSTAYMQLSSLTSEDSAIYYCARGRDLAMDYWGQGTSVTVSS VL: DIQMNQSPSSLSASLGDTITITCHASQNINVWLGWYQQKPGNIPKLLIYKASNLHTGVPSRFSGSGSGTGFTLTISSLQPEDIATYYCQQGQSYPYTFGGGTKLEIK not shown | – | – | – | – | – | binding result [1]: binds; binding result [2]: binds; binding result [3]: binds
2 | IgG E-2 (antibody, V domains shown, also called humanized Clone E IgG (EVH1 / EVL1)) VH: QVQLVQSGAEVKKPGSSVKVSCKASGYTFTNHWIEWVRQAPGQGLEWMGDIFPGGGYTDYNEKFKGRVTITADESTSTAYMELSSLRSEDTAVYYCARGRDLAMDYWGQGTLVTVSS VL: DIQMTQSPSSLSASVGDRVTITCHASQNINVWLGWYQQKPGKAPKLLIYKASNLHTGVPSRFSGSGSGTDFTLTISSLQPEDFATYYCQQGQSYPYTFGQGTKVEIK | 7.62 | 0.00378 | 496000 | – | – | –
3 | Clone A (antibody, V domains shown, Murine hybridoma antibody tested as supernatant; also called anti-CD38 murine hybridoma clone A) VH: QVQLQQSGAELVKPGASVKISCKASGYTFSNYWIEWVKQRPGLGLEWIGDILPGSGTTNYNEKFKGKATFTADTSSNTAYMQLSSLTSEDSAVYYCAGYGNYLWFTYWGQGTLVTVSA VL: DIQMNQSPSSLSASLGDTITITCHASQNINVWLSWYQQKPGNIPKLLIYKASNLHTGVPSRFSGSGSGTGFTLTISSLQPEDIATYYCQQGQSYPYTFGGGTKLEIK | – | – | – | binds | binds | –
4 | Clone E (antibody, V domains shown, Murine hybridoma antibody tested as supernatant; also called anti-CD38 murine hybridoma clone E) VH: QVQLQQSGAELVRPGTSVKMSCKAAGYTFTNHWIEWVKQRPGHGLEWIGDIFPGGGYTDYNEKFKGKATLTADTSSSTAYMQLSSLTSEDSAIYYCARGRDLAMDYWGQGTSVTVSS VL: DIQMNQSPSSLSASLGDTITITCHASQNINVWLGWYQQKPGNIPKLLIYKASNLHTGVPSRFSGSGSGTGFTLTISSLQPEDIATYYCQQGQSYPYTFGGGTKLEIK | – | – | – | binds | – | –
5 | IgG E-1 (antibody, V domains shown, also called chimeric IgG of Clone E) VH: QVQLQQSGAELVRPGTSVKMSCKAAGYTFTNHWIEWVKQRPGHGLEWIGDIFPGGGYTDYNEKFKGKATLTADTSSSTAYMQLSSLTSEDSAIYYCARGRDLAMDYWGQGTSVTVSS VL: DIQMNQSPSSLSASLGDTITITCHASQNINVWLGWYQQKPGNIPKLLIYKASNLHTGVPSRFSGSGSGTGFTLTISSLQPEDIATYYCQQGQSYPYTFGGGTKLEIK | 1.99 | 0.00117 | 587000 | – | – | –
6 | Clone G (antibody, V domains shown, Murine hybridoma antibody tested as supernatant; also called anti-CD38 murine hybridoma clone G) VH: QVQLQQPGPELVKPVASVKISCKTSDYAFSSSWMNWVKQRPGKGLEWIGWIYPGDGDTNYNGKFKGKATLTADKSSSTAYMQLSSLTSEDSAVYFCARGRWGMDNWGQGTSVTVSS VL: DIVMTQSHKFMSTSVGDRVSITCKASQNVVTAVAWYQQKPGQSPKLLIYWASSRHTGVPDRFTGSGSGTDFTLTISNVQSEDLADYFCQQYSNYPFTFGSGTKLEIK | – | – | – | binds | binds | –
7 | Clone H (antibody, V domains shown, Murine hybridoma antibody tested as supernatant; also called anti-CD38 murine hybridoma clone H) VH: QVPLHQSGPELIKPGASLKISCKASDSAFNNSWMNWVRQRPGKGLEWIGWIYPGDDDTKYNGKFMGKATLTADKSSGTAYMQLSSLTSEDSAVYFCARGRWGMDYWGQGTSVTVSS VL: DIVMTQFHNFMSTSVGDRVNINCKASQNVVTAVAWYQQKPGQSPKLLIYWASTRHTGVPDRFTGSGSGTDFTLTISNVQSEDLADYFCQQYSNYPFTFGSGTKLEIK | – | – | – | binds | binds | –
8 | Clone I (antibody, V domains shown, Murine hybridoma antibody tested as supernatant; also called anti-CD38 murine hybridoma clone I) VH: QVPLQQSGPELVKPGASVKISCKASDSAFNNSWTIWVRQRPGKGLEWIGWIYPGDDDTKYNGKFMGKATLTADKSSGTAYMQLSSLTSEDSAVYFCARGRWGMDYWGQGTSVTVSS VL: DIVMTQSRKFMSTSVGDRVSISCKASQNVVTAVAWYQQKPGQSPKLLIYWASTRHTGVPDRFTGSGSGTDFTLTISNVQSEDLADYFCQQYSNYPFTFGSGTELEIK | – | – | – | binds | binds | –
9 | IgM B-1 (bispecific antibody, Constant regions not specified; also called chimeric CD38 × CD3 IgM antibody of Clone B) VH: QAYLQQSGAEVVRSGASVKMSCKAAGYTFTSYNMHWVKQTPGQGLEWIGYIYPGNGGTNYNQKFKGKATLTADTSSTTAYMQISSLTSEDSAVYFCARGASMITTGAWFAYWGQGTLVTVSA VL: NIVLTQSPASLAVSLGQRATISCRASESLDTYGNSFMYWYQQKPGQPPKLLIYLASSLESGVPARFSGSGSRTDFTLTIDPVEADDAATYYCHQNHEDPWTFGGGTKLEIK not shown | – | – | – | – | – | binding result [1]: binds; binding result [2]: binds; binding result [3]: binds
10 | IgG B-1 (antibody, V domains shown, also called chimeric IgG of Clone B) VH: QAYLQQSGAEVVRSGASVKMSCKAAGYTFTSYNMHWVKQTPGQGLEWIGYIYPGNGGTNYNQKFKGKATLTADTSSTTAYMQISSLTSEDSAVYFCARGASMITTGAWFAYWGQGTLVTVSA VL: NIVLTQSPASLAVSLGQRATISCRASESLDTYGNSFMYWYQQKPGQPPKLLIYLASSLESGVPARFSGSGSRTDFTLTIDPVEADDAATYYCHQNHEDPWTFGGGTKLEIK | 0.526 | 7.32e-05 | 139000 | – | – | –
11 | Clone B (antibody, V domains shown, Murine hybridoma antibody tested as supernatant; also called anti-CD38 murine hybridoma clone B) VH: QAYLQQSGAEVVRSGASVKMSCKAAGYTFTSYNMHWVKQTPGQGLEWIGYIYPGNGGTNYNQKFKGKATLTADTSSTTAYMQISSLTSEDSAVYFCARGASMITTGAWFAYWGQGTLVTVSA VL: NIVLTQSPASLAVSLGQRATISCRASESLDTYGNSFMYWYQQKPGQPPKLLIYLASSLESGVPARFSGSGSRTDFTLTIDPVEADDAATYYCHQNHEDPWTFGGGTKLEIK | – | – | – | binds | – | –
12 | IgM C-1 (bispecific antibody, Constant regions not specified; also called chimeric CD38 × CD3 IgM antibody of Clone C) VH: EVQLQQSGTVLARPGASVKMSCKASGYTFTRYWMHWVKQRPGQDLEWIGGFYPGNSDTRYNQKFKDKAKLTAVTSTSTAYMELSSLTNEDSAVYYCTRGDRHDEGFAYWGQGTLVTVSA VL: DIQMTQSPASLSASVGETVTITCRASGNIHNYLAWYQQKQGKSPQLLVYNAKTLPDGVPSRFSGSGSGTQYSLKINSLQPEDFGTYYCQNIWTNYTFGGGTKLEIK not shown | – | – | – | – | – | binding result [1]: binds; binding result [2]: binds; binding result [3]: binds
13 | Clone C (antibody, V domains shown, Murine hybridoma antibody tested as supernatant; also called anti-CD38 murine hybridoma clone C) VH: EVQLQQSGTVLARPGASVKMSCKASGYTFTRYWMHWVKQRPGQDLEWIGGFYPGNSDTRYNQKFKDKAKLTAVTSTSTAYMELSSLTNEDSAVYYCTRGDRHDEGFAYWGQGTLVTVSA VL: DIQMTQSPASLSASVGETVTITCRASGNIHNYLAWYQQKQGKSPQLLVYNAKTLPDGVPSRFSGSGSGTQYSLKINSLQPEDFGTYYCQNIWTNYTFGGGTKLEIK | – | – | – | binds | binds | –
14 | IgG OKT10-1 (antibody, V domains shown, also called parental OKT10 in IgG format) VH: EVKLQESGGGLVQPGGSLKLSCAASGFDFSRSWMNWVRQAPGKGLEWIGEINPDSSTINYTTSLKDKFIISRDNAKNTLYLQMTKVRSEDTALYYCARYGNWFPYWGQGTLVTVSA VL: DIVMTQSPKIMPTSVGDRVSVTCKASQNVDTNVAWYQQKPGQSPKALIYSASYRYSGVPDRFTGSGSGTDFTLTITNVQSEDLAEYFCQQYDSYPLTFGAGTKLDLK | 5.97 | 0.00206 | 344000 | – | – | –
15 | IgG B-2 (antibody, V domains shown, also called humanized Clone B IgG (BVH1 / BVL1)) VH: QVQLVQSGAEVKKPGSSVKVSCKASGYTFTSYNMHWVRQAPGQGLEWMGYIYPGNGGTNYNQKFKGRVTITADESTSTAYMELSSLRSEDTAVYYCARGASMITTGAWFAYWGQGTLVTVSS VL: DIQMTQSPSSVSASVGDRVTITCRASESLDTYGNSFMYWYQQKPGKAPKLLIYLASSLESGVPSRFSGSGSGTDFTLTISSLQPEDFATYYCHQNHEDPWTFGQGTKVEIK | 0.8 | 0.000225 | 281000 | – | – | –
16 | Clone F (antibody, V domains shown, Murine hybridoma antibody tested as supernatant; also called anti-CD38 murine hybridoma clone F) VH: EVQLQQSGAEFVRPGASVKLSCTASGFNIKDSLMHWVKQRPEQGLEWIGWIDPEDDKTKYAPKFQDEATLTADTSSNTAYLHLSSLTSEDTAIYYCARRFLRGFAYWGQGTLVTVSA VL: DIVMTQSPSSLSVSAGEKVTMSCKSSQSLLNSGNQKNYLAWYQQKPGQPPKLLIYGASTRESGVPDRFTGSGSGTDFTLTISSVQAEDLAVYYCQNDHSYPYTFGGGTKLEIK | – | – | – | binds | binds | –
17 | Clone D (antibody, V domains shown, Murine hybridoma antibody tested as supernatant; also called anti-CD38 murine hybridoma clone D) VH: QIQLVQSGPELKKPGETVKISCKASGYTFTNYGMNWVKQAPGEDLKWMGWLNTNTGEPTYAEEFKGRFAFSLETSASTAYLQINNLRNEDTATYFCARWYYGSSDNSYAMDYWGQGTSVTVSS VL: ETIVTQFPASLSMAIGEKVTIRCITSTDIDDDMNWYQQRPGEPPKLLISEGNTLRPGVPSRFSSSGYGTDFVFTFENMLSEDVADYYCLQSDSLPYTVGGGTRLEIK | – | – | – | binds | binds | –
18 | IgG OKT10-2 (antibody, V domains shown, also called humanized OKT10 IgG (OKT10VH2 / OKT10VL2)) VH: EVQLLESGGGLVQPGGSLRLSCAASGFDFSRSWMNWVRQAPGKGLEWVSEINPDSSTINYATSLKDRFTISRDNSKNTLYLQMNSLRAEDTAVYYCARYGNWFPYWGQGTLVTVSS VL: DIQMTQSPSSLSASVGDRVTITCKASQNVDTNVAWYQQKPGKAPKALIYSASYRYSGVPSRFSGSGSGTDFTLTISSLQPEDFATYYCQQYDSYPLTFGQGTKVEIK | 28.3 | 0.0113 | 400000 | – | – | –
